The subject of data set [1] is T1, RalCDP-CBM37.
T1 construct: CBM37 of R. albus 8 Cel5G fused by glycine linker (Gly X9) to C-terminus of full-length RalCDP in one polypeptide; His-tag kept; E. coli BL21 (DE3); homodimer
Nature of the data set: arsenolysis, glucose release, glucose oxidase-peroxidase, Michaelis-Menten fit. It counts as biochemical, Hominimerdicola alba. Particulars: phosphorolysis direction measured as arsenolysis; arsenate as co-substrate; 50 mM sodium acetate pH 6.0, 45°C; read-out: K M (mM) (mg/mL).

Data set [2] addresses RalCDP-CBM37, RalCDP fused at its C-terminus to CBM37 of R. albus 8 Cel5G by a glycine linker (Ruminococcus albus 8). Description: SEC; Superdex 200 10/300 in Buffer G (50 mM HEPES-NaOH pH 8.0, 100 mM NaCl, 0.1 mM EDTA); native mass from a calibration curve of standard proteins.
The target in data set [3] is Ruminococcus albus 8 cellodextrin phosphorylase (RalCDP) (Ruminococcus albus 8). The data set is described as above.
For data set [4], the target named is Ral∆N63CDP-CBM37, Ral∆N63CDP fused at its C-terminus to CBM37 of R. albus 8 Cel5G by a glycine linker (Ruminococcus albus 8). Described as above.
Data set [5] concerns the target Ruminococcus albus 8 cellobiose phosphorylase (RalCBP) (Ruminococcus albus 8). The description is as above.
For data set [6], the system named is T1, RalCDP-CBM37. Description: glucose release, glucose oxidase-peroxidase, Michaelis-Menten fit. It counts as biochemical, Hominimerdicola alba. Particulars: phosphorolysis direction; Pi as co-substrate; 50 mM sodium acetate pH 6.0, 45°C; read-out: K M (mM) (mg/mL).
Substrate in data set [7]: O=P(O)(O)O[C@H]1O[C@H](CO)[C@@H](O)[C@H](O)[C@H]1O
Nature of the data set: Pi release, Malachite Green, Michaelis-Menten fit. Particulars: synthesis direction (donor), co-substrate glucose, 100 mM sodium acetate pH 6.0, 45°C. It counts as biochemical, Hominimerdicola alba. The text has this:
Pi release, Malachite Green, Michaelis-Menten fit on RalCBP

Substrate in the data set “purified protein”: O=P(O)(O)O
Nature of the data set: purified protein. Particulars: phosphorolysis direction, co-substrate cellobiose, 50 mM sodium acetate pH 6.0, 45°C.

Turning to `OC[C@H]1O[C@@H](O[C@H]2[C@H](O)[C@@H](O)[C@H](O[C@H]3[C@H](O)[C@@H](O)[C@H](O[C@H]4[C@H](O)[C@@H](O)C(O)O[C@@H]4CO)O[C@@H]3CO)O[C@@H]2CO)[C@H](O)[C@@H](O)[C@@H]1O` (some centres unmarked) [Cellotetraose], the Km in the data set with RalCDP-CBM37 [1] is 0.24 ± 0.06 mM.

In data set [2], “RalCDP-CBM37, RalCDP fused at its C-terminus to CBM37 of R. albus 8 Cel5G by a glycine linker (enzyme)” registered a stoichiometry N of 2.

Turning to “Ruminococcus albus 8 cellodextrin phosphorylase (RalCDP) (enzyme)”, the stoichiometry N in data set [3] came out at 2.

On to `OC[C@H]1O[C@@H](O[C@H]2[C@H](O)[C@@H](O)[C@H](O[C@H]3[C@H](O)[C@@H](O)[C@H](O[C@H]4[C@H](O)[C@@H](O)[C@H](O[C@H]5[C@H](O)[C@@H](O)C(O)O[C@@H]5CO)O[C@@H]4CO)O[C@@H]3CO)O[C@@H]2CO)[C@H](O)[C@@H](O)[C@@H]1O` (some centres unmarked) [Cellopentaose], for which, in the data set on RalCDP-CBM37 [1], the Km was 0.14 ± 0.03 mM.

The molecule “Ral∆N63CDP-CBM37, Ral∆N63CDP fused at its C-terminus to CBM37 of R. albus 8 Cel5G by a glycine linker (enzyme)” displayed a stoichiometry N in data set [4] of 5.

On to “Ruminococcus albus 8 cellobiose phosphorylase (RalCBP) (enzyme)”, for which, in data set [5], the stoichiometry N is 2.

Take `OC[C@H]1O[C@@H](O[C@H]2[C@H](O)[C@@H](O)[C@H](O[C@H]3[C@H](O)[C@@H](O)C(O)O[C@@H]3CO)O[C@@H]2CO)[C@H](O)[C@@H](O)[C@@H]1O` (some centres unmarked) [Cellotriose]: the Km in the data set on RalCDP-CBM37 [1] was 2.2 ± 0.3 mM.

On to `OC[C@H]1O[C@@H](O[C@H]2[C@H](O)[C@@H](O)C(O)O[C@@H]2CO)[C@H](O)[C@@H](O)[C@@H]1O` (some centres unmarked) [Cellobiose], for which the Km in the data set on RalCDP-CBM37 [6] is 11 ± 2 mM.

B1: RalCBP (Hominimerdicola alba 8) (protein)
chain: MKFGFFDDANKEYVITEPRTPYPWINYLGSQAFFSLISNTAGGYSFYKDARLRRITRYRYNNVPIDMGGRYFYINDNGTVWNPGWSPVKTELDAYTCRHGMGYTIIKGEKNGLEAEVTFFVPNNYNGEVQKVVLTNKSGAEKTFKLFSFAEWCLWDAQDDCTNFQRNFSTGRVEVDGSVIYHKTEYRDRRDHYAFYSVNDSIDGYDTDRDSFIGLYNGFNDPQAVMAGKANDSFADGWSPIASHYKEIKLGAGESKTLIFILGYVEMPVDQKFEADGKTINKVKAKAMMEQFDTPEKVDAGLAELKASWDKLLGILNVDTPDDKVDRMVNIWNQYQCMVTFNLSRSASYFESGIGRGMGFRDSNQDILGFVHQIPDRARERIIDIASTQLPDGGCYHQYQPLTKKGNSDIGGDFSDDPLWMILSVSAYIKETGDWGILDEMVPYDNDESKAQPMLDHLKVSFYHIVNNLGPHGLPLAMRADWNDCINLSCYSDTPGESFQTYTNPKFAAEGGYSKVAESVMVATLFTYTGPNYVAILKHLGKDDEAAAAQAEIDKMKKNVMASAWDGDWFLRAYDSEGKKMGSKECEEGQIFIEPQGFAIMSEIGKEQGADKKTLAAIDERLNTKFGLVLNNPAFTKYYIQYGEISTYPGGYKENAGIFTHNNAWIICAAAYAGQGDQAFKYYSEIAPAFTEETSDIHKTEPYVYGQMIGGKDAGSDIGRPGKNFGQGKNSWLTGTAAWNMVAISQYILGVQPDFDGLKIDPSIPAAWDGFNITRKFRGNTYNIAVKNPDHVCKGIKSVTVDGKKIDGIVMPVFEAGSVHEVEVVMG
notes: full length, His6-tag kept (methods: N-terminus; results: C-terminal), codon-optimized, E. coli BL21 (DE3); homodimer 180 kDa
In the case of B1, in data set [7], the Km was found to be 2000 ± 200 µM, the kcat was determined as 178 ± 2 s⁻¹ and the kcat/Km amounted to 89000 M⁻¹ s⁻¹. Moreover, in “purified protein”, the Km worked out at 580 ± 20 µM, the kcat is 284 s⁻¹ and the catalytic efficiency (kcat/Km) came out at 490000 M⁻¹ s⁻¹.

The record behind these values is PMC10119399, “Insights to improve the activity of glycosyl phosphorylases from Ruminococcus albus 8 with cello-oligosaccharides” (Frontiers in Chemistry, 2023).
